Key:
[1] = biological target: FcγRIIIa receptor, F158 (low affinity) variant (UniProt P08637)
[2] = biological target: FcγRIIIa receptor, V158 (high affinity) variant

Row | EC50 of the ADCC reporter bioassay, Daudi target cells, F/F 158 variant effector cells [1] | EC50 of the ADCC reporter bioassay, Wil2-S target cells, F/F 158 variant effector cells [1] | EC50 of the ADCC reporter bioassay, Daudi target cells, V/V 158 variant effector cells [2] | EC50 of the ADCC reporter bioassay, Wil2-S target cells, V/V 158 variant effector cells [2] | Substance
1 | 22 ng/mL | 18 ng/mL | 12 ng/mL | 15.7 ng/mL | Rituxan^® (rituximab, innovator product) (antibody)
2 | 7 ng/mL | 4.4 ng/mL | 2.9 ng/mL | 2.7 ng/mL | reglycosylated plant-made rituximab (NbRTX^A2G2) (antibody)
